The chains are these.
B1: Gamma-crystallin S, residues 96 to 176; numbered along this chain, P22914 (parent)
chain: IQIFEKGDFSGQMYETTEDCPSIMEQFHMREIHSCKVLEGVWIFYELPNYRGRQYLLDKKEYRKPIDWGAASPAVQSFRRI

The values below come from the Human Domainome abundance scans (Beltran et al. 2025).

± gives the uncertainty stated by the source.

The data set covers variants of B1. The data set can be described thus: abundance fitness (aPCA) (normalised: wild type 0, dead -1); higher = more abundant; growth selection in yeast, the domain comes from the species named. Particulars: Homo sapiens.
On to IQIFCKGDFSGQMYETTEDCPSIMEQFHMREIHSCKVLEGVWIFYELPNYRGRQYLLDKKEYRKPIDWGAASPAVQSFRRI [E5C], for which the abundance fitness is -0.022 ± 0.064.

As for IQIFWKGDFSGQMYETTEDCPSIMEQFHMREIHSCKVLEGVWIFYELPNYRGRQYLLDKKEYRKPIDWGAASPAVQSFRRI [E5W], the abundance fitness turned out to be 0.006 ± 0.072.

With IQIFVKGDFSGQMYETTEDCPSIMEQFHMREIHSCKVLEGVWIFYELPNYRGRQYLLDKKEYRKPIDWGAASPAVQSFRRI [E5V], the abundance fitness is 0.051 ± 0.039.

In the case of IQIFNKGDFSGQMYETTEDCPSIMEQFHMREIHSCKVLEGVWIFYELPNYRGRQYLLDKKEYRKPIDWGAASPAVQSFRRI [E5N], the abundance fitness is -0.062 ± 0.13.

Turning to IQIFHKGDFSGQMYETTEDCPSIMEQFHMREIHSCKVLEGVWIFYELPNYRGRQYLLDKKEYRKPIDWGAASPAVQSFRRI [E5H], the abundance fitness is -0.041 ± 0.11.

IQIFMKGDFSGQMYETTEDCPSIMEQFHMREIHSCKVLEGVWIFYELPNYRGRQYLLDKKEYRKPIDWGAASPAVQSFRRI [E5M]: the abundance fitness came out at 0.028 ± 0.12.

In the case of IQIFIKGDFSGQMYETTEDCPSIMEQFHMREIHSCKVLEGVWIFYELPNYRGRQYLLDKKEYRKPIDWGAASPAVQSFRRI [E5I], the abundance fitness was found to be 0.014 ± 0.086.

On to IQIFTKGDFSGQMYETTEDCPSIMEQFHMREIHSCKVLEGVWIFYELPNYRGRQYLLDKKEYRKPIDWGAASPAVQSFRRI [E5T], for which the abundance fitness is -0.07 ± 0.094.

For IQIFRKGDFSGQMYETTEDCPSIMEQFHMREIHSCKVLEGVWIFYELPNYRGRQYLLDKKEYRKPIDWGAASPAVQSFRRI [E5R], the abundance fitness is -0.002 ± 0.047.

As for IQIFGKGDFSGQMYETTEDCPSIMEQFHMREIHSCKVLEGVWIFYELPNYRGRQYLLDKKEYRKPIDWGAASPAVQSFRRI [E5G], the abundance fitness was -0.02 ± 0.039.

As for IQIFYKGDFSGQMYETTEDCPSIMEQFHMREIHSCKVLEGVWIFYELPNYRGRQYLLDKKEYRKPIDWGAASPAVQSFRRI [E5Y], the abundance fitness came out at 0.083 ± 0.1.

As to IQIFLKGDFSGQMYETTEDCPSIMEQFHMREIHSCKVLEGVWIFYELPNYRGRQYLLDKKEYRKPIDWGAASPAVQSFRRI [E5L], the abundance fitness was determined as 0.013 ± 0.051.

For IQIFKKGDFSGQMYETTEDCPSIMEQFHMREIHSCKVLEGVWIFYELPNYRGRQYLLDKKEYRKPIDWGAASPAVQSFRRI [E5K], the abundance fitness was -0.007 ± 0.094.

Turning to IQIFFKGDFSGQMYETTEDCPSIMEQFHMREIHSCKVLEGVWIFYELPNYRGRQYLLDKKEYRKPIDWGAASPAVQSFRRI [E5F], the abundance fitness was 0.057 ± 0.084.

Take IQIFPKGDFSGQMYETTEDCPSIMEQFHMREIHSCKVLEGVWIFYELPNYRGRQYLLDKKEYRKPIDWGAASPAVQSFRRI [E5P]: the abundance fitness is -0.01 ± 0.065.

Turning to IQIFDKGDFSGQMYETTEDCPSIMEQFHMREIHSCKVLEGVWIFYELPNYRGRQYLLDKKEYRKPIDWGAASPAVQSFRRI [E5D], the abundance fitness is -0.05 ± 0.062.

With IQIFQKGDFSGQMYETTEDCPSIMEQFHMREIHSCKVLEGVWIFYELPNYRGRQYLLDKKEYRKPIDWGAASPAVQSFRRI [E5Q], the abundance fitness came to 0.12 ± 0.092.

Consider IQIFSKGDFSGQMYETTEDCPSIMEQFHMREIHSCKVLEGVWIFYELPNYRGRQYLLDKKEYRKPIDWGAASPAVQSFRRI [E5S], for which the abundance fitness was -0.046 ± 0.04.

Consider IQIFESGDFSGQMYETTEDCPSIMEQFHMREIHSCKVLEGVWIFYELPNYRGRQYLLDKKEYRKPIDWGAASPAVQSFRRI [K6S], for which the abundance fitness was 0.085 ± 0.06.

On to IQIFEAGDFSGQMYETTEDCPSIMEQFHMREIHSCKVLEGVWIFYELPNYRGRQYLLDKKEYRKPIDWGAASPAVQSFRRI [K6A], for which the abundance fitness amounted to 0.007 ± 0.066.

Consider IQIFEQGDFSGQMYETTEDCPSIMEQFHMREIHSCKVLEGVWIFYELPNYRGRQYLLDKKEYRKPIDWGAASPAVQSFRRI [K6Q], for which the abundance fitness was -0.056 ± 0.074.

For the variant IQIFEIGDFSGQMYETTEDCPSIMEQFHMREIHSCKVLEGVWIFYELPNYRGRQYLLDKKEYRKPIDWGAASPAVQSFRRI [K6I], the abundance fitness is -0.009 ± 0.1.

For the variant IQIFEMGDFSGQMYETTEDCPSIMEQFHMREIHSCKVLEGVWIFYELPNYRGRQYLLDKKEYRKPIDWGAASPAVQSFRRI [K6M], the abundance fitness is 0.049 ± 0.087.

As to IQIFEFGDFSGQMYETTEDCPSIMEQFHMREIHSCKVLEGVWIFYELPNYRGRQYLLDKKEYRKPIDWGAASPAVQSFRRI [K6F], the abundance fitness was 0.099 ± 0.13.

Consider IQIFELGDFSGQMYETTEDCPSIMEQFHMREIHSCKVLEGVWIFYELPNYRGRQYLLDKKEYRKPIDWGAASPAVQSFRRI [K6L], for which the abundance fitness is -0.058 ± 0.067.

As to IQIFEGGDFSGQMYETTEDCPSIMEQFHMREIHSCKVLEGVWIFYELPNYRGRQYLLDKKEYRKPIDWGAASPAVQSFRRI [K6G], the abundance fitness was found to be 0.004 ± 0.044.

Take IQIFEPGDFSGQMYETTEDCPSIMEQFHMREIHSCKVLEGVWIFYELPNYRGRQYLLDKKEYRKPIDWGAASPAVQSFRRI [K6P]: the abundance fitness is -1.1 ± 0.21.

As to IQIFETGDFSGQMYETTEDCPSIMEQFHMREIHSCKVLEGVWIFYELPNYRGRQYLLDKKEYRKPIDWGAASPAVQSFRRI [K6T], the abundance fitness is 0.007 ± 0.095.

For IQIFEYGDFSGQMYETTEDCPSIMEQFHMREIHSCKVLEGVWIFYELPNYRGRQYLLDKKEYRKPIDWGAASPAVQSFRRI [K6Y], the abundance fitness is -0.033 ± 0.096.

IQIFEHGDFSGQMYETTEDCPSIMEQFHMREIHSCKVLEGVWIFYELPNYRGRQYLLDKKEYRKPIDWGAASPAVQSFRRI [K6H]: the abundance fitness was -0.02 ± 0.15.

In the case of IQIFERGDFSGQMYETTEDCPSIMEQFHMREIHSCKVLEGVWIFYELPNYRGRQYLLDKKEYRKPIDWGAASPAVQSFRRI [K6R], the abundance fitness was -0.047 ± 0.048.

As for IQIFEVGDFSGQMYETTEDCPSIMEQFHMREIHSCKVLEGVWIFYELPNYRGRQYLLDKKEYRKPIDWGAASPAVQSFRRI [K6V], the abundance fitness came out at 0.033 ± 0.062.

Consider IQIFEDGDFSGQMYETTEDCPSIMEQFHMREIHSCKVLEGVWIFYELPNYRGRQYLLDKKEYRKPIDWGAASPAVQSFRRI [K6D], for which the abundance fitness is 0.015 ± 0.085.

In the case of IQIFEEGDFSGQMYETTEDCPSIMEQFHMREIHSCKVLEGVWIFYELPNYRGRQYLLDKKEYRKPIDWGAASPAVQSFRRI [K6E], the abundance fitness was determined as 0 ± 0.08.
